Data from PMC6748660.

Target: full-length mScarlet-tagged tau (2N4R) (human) (UniProt P10636)
Assay: TIRF microscopy, condensate enrichment assay

GFP-tagged isolated C-terminus of tau (domain or fragment)
fold enrichment within mScarlet-2N4R condensates over the lattice: 1.2 fold
